# Test results published in US11208638.
# Assays:
# [1] = target: Cas9 alpha-helical lobe (Streptococcus pyogenes) (UniProt Q99ZW2); experiment: filter; conditions: 5 mM MgCl2, RT
# [2] = target: dCas9 D10A,H840A (Streptococcus pyogenes) (UniProt Q99ZW2); experiment: EMSA; conditions: 5 mM MgCl2, heparin, RT; PAM NGG
# [3] = tested on: split-dCas9 (alpha-helical lobe + dNuclease lobe) D10A,H840A (Streptococcus pyogenes); experiment: EMSA; conditions: apparent; complex dissociation contributes; 5 mM MgCl2, heparin; PAM NGG
# [4] = tested on: split-Cas9 (alpha-helical lobe + nuclease lobe) (Streptococcus pyogenes); experiment: cell_activity; conditions: HEK293T nucleofected RNP, nocodazole synchronized; 0.6% unsynchronized; WT 34% and 22%
# [5] = target: Cas9 nuclease lobe (Streptococcus pyogenes) (UniProt Q99ZW2); experiment: filter
substance,measurement,setting,value
delta-spacer-nexus sgRNA,Kd,[1],> 100 nM
"full-length sgRNA ; target dsDNA (55 bp, with PAM)",Kd,[2],0.2 nM
same,Kd,[3],700 nM
EMX1 sgRNA ; EMX1 locus target,activity,[4],< 2 % indels
full-length sgRNA,Kd,"[5]; Example 1, p568 gives range 0.2-0.8 nM",0.5 nM
delta-hairpins1-2 sgRNA,Kd,"[5]; 5 mM MgCl2, RT",> 100 nM
